Experimental data: US20170022281A1 (AbbVie / Abbott, published 2017)
Residue numbers refer to the chain shown, from its start.

T1: mouse PRLR on Baf3-mPRLR cells (mouse, UniProt Q08501 20-608)
T1 sequence (looked up): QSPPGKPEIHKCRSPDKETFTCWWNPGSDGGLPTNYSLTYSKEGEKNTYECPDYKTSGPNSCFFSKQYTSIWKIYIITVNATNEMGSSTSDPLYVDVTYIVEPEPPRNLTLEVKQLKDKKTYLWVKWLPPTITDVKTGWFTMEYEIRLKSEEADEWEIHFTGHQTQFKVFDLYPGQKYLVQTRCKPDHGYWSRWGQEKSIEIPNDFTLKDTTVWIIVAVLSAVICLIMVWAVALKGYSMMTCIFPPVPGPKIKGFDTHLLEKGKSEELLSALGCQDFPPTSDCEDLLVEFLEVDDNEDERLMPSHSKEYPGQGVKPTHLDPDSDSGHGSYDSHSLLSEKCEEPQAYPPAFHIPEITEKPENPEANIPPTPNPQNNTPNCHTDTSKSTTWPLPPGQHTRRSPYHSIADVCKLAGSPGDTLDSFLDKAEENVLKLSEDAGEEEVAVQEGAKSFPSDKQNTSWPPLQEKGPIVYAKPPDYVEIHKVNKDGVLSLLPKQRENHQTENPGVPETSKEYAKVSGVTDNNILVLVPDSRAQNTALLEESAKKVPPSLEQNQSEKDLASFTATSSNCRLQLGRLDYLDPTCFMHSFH

T2: human PRLR on cells (human, UniProt P16471 25-622)
T2 sequence: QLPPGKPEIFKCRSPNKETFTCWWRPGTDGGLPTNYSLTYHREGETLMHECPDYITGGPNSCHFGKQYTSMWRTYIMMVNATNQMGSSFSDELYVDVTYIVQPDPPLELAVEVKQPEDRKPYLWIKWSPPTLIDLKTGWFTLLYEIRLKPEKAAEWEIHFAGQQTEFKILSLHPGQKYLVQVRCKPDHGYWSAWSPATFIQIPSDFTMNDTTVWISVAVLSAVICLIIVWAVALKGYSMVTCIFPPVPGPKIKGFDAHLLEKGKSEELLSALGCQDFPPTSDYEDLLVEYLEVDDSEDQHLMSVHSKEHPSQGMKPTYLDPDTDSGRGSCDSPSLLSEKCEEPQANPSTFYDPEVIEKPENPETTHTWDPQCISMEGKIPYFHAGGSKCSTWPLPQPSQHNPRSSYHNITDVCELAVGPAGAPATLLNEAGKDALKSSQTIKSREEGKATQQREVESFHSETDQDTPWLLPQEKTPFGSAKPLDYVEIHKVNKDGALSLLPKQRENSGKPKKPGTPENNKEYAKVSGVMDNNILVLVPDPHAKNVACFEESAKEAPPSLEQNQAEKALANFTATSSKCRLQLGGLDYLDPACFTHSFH

T3: cyno PRLR ECD-his6 protein (cyno)
T3 chain: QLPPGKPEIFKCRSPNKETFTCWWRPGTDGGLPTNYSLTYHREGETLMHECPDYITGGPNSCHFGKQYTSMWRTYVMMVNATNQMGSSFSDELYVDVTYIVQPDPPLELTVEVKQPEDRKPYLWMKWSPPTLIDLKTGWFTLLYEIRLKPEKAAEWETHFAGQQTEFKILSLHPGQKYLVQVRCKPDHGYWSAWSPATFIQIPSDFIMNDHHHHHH

T4: human PRLR ECD-Fc fusion protein (human, UniProt P16471 25-233)
T4 construct: not shown: Fc region (captured by goat anti-human Fc)
T4 sequence: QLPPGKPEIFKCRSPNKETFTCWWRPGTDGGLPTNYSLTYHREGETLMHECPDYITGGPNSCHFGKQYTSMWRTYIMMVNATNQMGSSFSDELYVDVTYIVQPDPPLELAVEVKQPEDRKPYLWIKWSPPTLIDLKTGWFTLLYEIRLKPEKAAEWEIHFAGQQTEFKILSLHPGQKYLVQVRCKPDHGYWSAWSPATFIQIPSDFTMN

T5: human PRLR (Biacore antigen) (human, UniProt P16471 25-234, limits assumed)
T5 construct: The construct injected over captured antibody is not described (a soluble form is likely); also called huPRLR
T5 sequence: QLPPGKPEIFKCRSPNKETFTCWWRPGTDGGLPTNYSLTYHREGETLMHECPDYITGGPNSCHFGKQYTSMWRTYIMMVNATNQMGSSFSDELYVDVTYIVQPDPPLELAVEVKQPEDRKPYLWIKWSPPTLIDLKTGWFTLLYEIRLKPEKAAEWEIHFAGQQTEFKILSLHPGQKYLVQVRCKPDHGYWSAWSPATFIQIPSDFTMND

T6: murine PRLR (Biacore antigen) (murine, UniProt Q08501 20-229, limits assumed)
T6 construct: also called muPRLR
T6 sequence (looked up): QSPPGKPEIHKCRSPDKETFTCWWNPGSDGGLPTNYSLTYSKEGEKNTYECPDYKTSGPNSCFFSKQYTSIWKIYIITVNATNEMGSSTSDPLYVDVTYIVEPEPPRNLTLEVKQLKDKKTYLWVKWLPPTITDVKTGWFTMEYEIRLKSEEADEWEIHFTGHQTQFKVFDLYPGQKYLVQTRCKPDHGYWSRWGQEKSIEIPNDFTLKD

T7: cyno PRLR (Biacore antigen) (cyno, UniProt A0A2K5WXK1 25-234)
T7 construct: also called cyPRLR
T7 sequence: T3 chain

B1: Ab35 (antibody, human IgG1, kappa)
heavy: not shown
light: DIVMTQTPLSLSVTPGQPASISCRSSQSLVHSNGNTYLHWYLQKPGQSPQLLIYKVSNRFSGVPDRFSGSGSGTDFTLKISRVEAEDVGVYYCSQSTHVPFTFGGGTKVEIKRTVAAPSVFIFPPSDEQLKSGTASVVCLLNNFYPREAKVQWKVDNALQSGNSQESVTEQDSKDSTYSLSSTLTLSKADYEKHKVYACEVTHQGLSSPVTKSFNRGEC
notes: humanized from Ab7; G1; also called Ab4 HC.1 and Ab4 LC.1
B2: Ab37 (antibody, human IgG1, kappa)
heavy: not shown
light: B1 light with I2V
notes: humanized from Ab7; G1; also called Ab4 HC.1 and Ab4 LC.1b
B3: Ab38 (antibody, human IgG1, kappa)
heavy: not shown
light: B1 light
notes: humanized from Ab7; G1; also called Ab4 HC.1a and Ab4 LC.1
B4: Ab47 (antibody, human IgG1, kappa, V domains shown)
VH: EVQLVQSGAEVKKPGASVKVSCKASGYTFTDYNIHWVRQAPGQGLEWIGYIYPNNDGTGYNQKFKSRATLTVDNSTSTAYMELRSLRSDDTAVYYCARGDGNYVGDMDYWGQGTTVTVSS
VL: DIQMTQSPSSLSASVGDRVTITCRASENIYSYLAWYQQKPGKAPKLLIYNAKTLAEGVPSRFSGSGSGTDFTLTISSLQPEDFATYYCQHHYATPFTFGQGTKLEIKR
notes: humanized from Ab8; G1; also called Ab3 HC.1a and Ab3 LC.1
B5: Ab14 (antibody, human IgG1, kappa, V domains shown)
VH: EVQLVQSGAEVKKPGSSVKVSCKASGYTFTTYWMHWVRQAPGQGLEWMGEIDPSDSYSNYNQKFKDRVTITADKSTSTAYMELSSLRSEDTAVYYCARNGGLGPAWFSYWGQGTLVTVSS
VL: DIQMTQSPSSVSASVGDRVTITCKASQYVGTAVAWYQQKPGKAPKLLIYSASNRYTGVPSRFSGSGSGTDFTLTISSLQPEDFATYYCQQYSSYPWTFGGGTKVEIKR
notes: humanized from Ab6; G1; also called Ab1 HC.1 & Ab1 LC.1
B6: Ab15 (antibody, human IgG1, kappa, V domains shown)
VH: B5 VH
VL: B5 VL with A43S, G64D, Y87F
notes: humanized from Ab6; G1; also called Ab1 HC.1 and Ab1 LC.1a
B7: Ab18 (antibody, human IgG1, kappa, V domains shown)
VH: B5 VH with M48I, V68A, I70L, A72V
VL: B5 VL
notes: humanized from Ab6; G1; also called Ab1 HC.1a and Ab1 LC.1
B8: Ab16 (antibody, human IgG1, kappa, V domains shown)
VH: B5 VH
VL: EIVMTQSPATLSVSPGERATLSCKASQYVGTAVAWYQQKPGQAPRLLIYSASNRYTGIPARFSGSGSGTEFTLTISSLQSEDFAVYYCQQYSSYPWTFGGGTKVEIKR
notes: humanized from Ab6; G1; also called Ab1 HC.1 and Ab1 LC.2
B9: Ab17 (antibody, human IgG1, kappa, V domains shown)
VH: B5 VH
VL: B8 VL with A43S, I58V, G64D, Y87F
notes: humanized from Ab6; G1; also called Ab1 HC.1 and Ab1 LC.2a
B10: Ab20 (antibody, human IgG1, kappa, V domains shown)
VH: B5 VH with M48I, V68A, I70L, A72V
VL: B8 VL
notes: humanized from Ab6; G1; also called Ab1 HC.1a and Ab1 LC.2

molecular target: T1, mouse PRLR on Baf3-mPRLR cells; assay: cell-based or functional assay

Binder | Baf3-mPRLR proliferation IC50
B1 | > 30 µg/mL
B2 | > 30 µg/mL
B3 | > 30 µg/mL
B4 | > 30 µg/mL
B5 | > 30 µg/mL
B6 | > 30 µg/mL
B7 | > 30 µg/mL
B8 | > 30 µg/mL
B9 | > 30 µg/mL
B10 | > 30 µg/mL

molecular target: cyno PRLR on Baf3-cyPRLR cells (cyno); assay: cell-based or functional assay

Binder | Baf3-cyPRLR proliferation IC50
B1 | 0.65 µg/mL
B2 | 0.44 µg/mL
B3 | 0.25 µg/mL
B4 | 3.01 µg/mL
B5 | 1.15 µg/mL
B6 | 0.19 µg/mL
B7 | 0.4 µg/mL
B8 | 1.73 µg/mL
B9 | 0.27 µg/mL
B10 | 0.5 µg/mL

molecular target: T2, human PRLR on cells; assay: cell-based or functional assay

Binder | Baf3-hPRLR proliferation IC50
B1 | 0.38 µg/mL
B2 | 0.43 µg/mL
B3 | 0.42 µg/mL
B4 | 0.4 µg/mL
B5 | 0.3 µg/mL
B6 | 0.13 µg/mL
B7 | 0.15 µg/mL
B8 | 0.46 µg/mL
B9 | 0.14 µg/mL
B10 | 0.2 µg/mL

Molecular target: T3, cyno PRLR ECD-his6 protein
Assay: ELISA on ECD
Protocol: (§1) Plates were blocked for 1 hour with Superblock (Pierce) and washed (3×) with wash buffer (lx PBS (pH 7.4), 0.05% Tween 20). ECD proteins were bound to the appropriate antibody (1 hour) in binding buffer (wash buffer plus 10% Superblock), washed (3×, wash buffer), and then incubated with serial dilutions of antibodies (1 hour) in binding buffer. After washing (3×, wash buffer), secondary antibodies conjugated to HRP were bound (1 hour) in binding buffer, washed (3×, wash buffer), and incubated with TMB substrate (Pierce) to develop signal for 3-5 minutes, stopped with 2N H₂SO₄ and scanned at […]. Curves were fit with GraphPad 5 (Prizm) and EC50's were determined with curve fitting function of GraphPad 5.

Binder | EC50
B1 | 0.32 nM
B2 | 0.186 nM
B3 | 0.264 nM
B4 | 0.119 nM
B5 | 0.031 nM
B6 | 0.0551 nM
B7 | 0.111 nM
B8 | 0.0671 nM
B9 | 0.0788 nM
B10 | 0.0711 nM

molecular target: T4, human PRLR ECD-Fc fusion protein; assay: ELISA on ECD
Protocol: as §1

Binder | EC50
B1 | 2.5 nM
B2 | 0.184 nM
B3 | 0.346 nM
B4 | 0.0819 nM
B5 | 0.0329 nM
B6 | 0.0781 nM
B7 | 0.0675 nM
B8 | 0.0641 nM
B9 | 0.0766 nM
B10 | 0.0836 nM

molecular target: T5, human PRLR (Biacore antigen); assay: SPR Biacore
Procedure, shortened: (§2)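 Association rate, dissociation rate and dissociation constant were measured by surface plasmon resonance on a Biacore instrument. PRLR antigen was tested at 600 nM, 66.67 nM and 7.41 nM, a 3-point, 9-fold dilution series. Constants came from a 1:1 binding model fit (local Rmax, mass-transport term included) in Biacore T200 Evaluation Software.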

Binder | Kd | koff | kon
B1 | 13.3 nM | 0.0016 s⁻¹ | 120000 M⁻¹ s⁻¹
B2 | 12.3 nM | 0.00146 s⁻¹ | 119000 M⁻¹ s⁻¹
B3 | 6.22 nM | 0.000879 s⁻¹ | 141000 M⁻¹ s⁻¹
B5 | 4.16 nM | 0.00458 s⁻¹ | 1.1e+06 M⁻¹ s⁻¹
B6 | 0.837 nM | 0.000972 s⁻¹ | 1.16e+06 M⁻¹ s⁻¹
B7 | 1.62 nM | 0.00171 s⁻¹ | 1.06e+06 M⁻¹ s⁻¹
B8 | 4.05 nM | 0.00562 s⁻¹ | 1.39e+06 M⁻¹ s⁻¹
B9 | 1.06 nM | 0.00132 s⁻¹ | 1.25e+06 M⁻¹ s⁻¹
B10 | 2 nM | 0.00208 s⁻¹ | 1.04e+06 M⁻¹ s⁻¹

molecular target: T6, murine PRLR (Biacore antigen); assay: SPR Biacore
Procedure, shortened: as §2

Binder | Kd | koff | kon
B1 | 1580 nM | 0.0785 s⁻¹ | 49800 M⁻¹ s⁻¹
B2 | 1670 nM | 0.0687 s⁻¹ | 41100 M⁻¹ s⁻¹
B3 | 994 nM | 0.0527 s⁻¹ | 53000 M⁻¹ s⁻¹
B10 | 620 nM | – | –

molecular target: T7, cyno PRLR (Biacore antigen); assay: SPR Biacore
Procedure, shortened: as §2

Binder | Kd | koff | kon
B1 | 13.5 nM | 0.00142 s⁻¹ | 105000 M⁻¹ s⁻¹
B2 | 12.3 nM | 0.00132 s⁻¹ | 107000 M⁻¹ s⁻¹
B3 | 6.04 nM | 0.000756 s⁻¹ | 125000 M⁻¹ s⁻¹
